Article PMC11190491

Molecular target: peptide on cattle MR1 (cattle)
Assay: data from (80); method not given; cattle MR1 without riboflavin-based antigen

## A-F7 MAIT TCR
  Kd: 30 µM
